Source: article PMC3511314, “Functional Characterization of Two M42 Aminopeptidases Erroneously Annotated as Cellulases” (PLoS ONE, 2012)

What was measured:
Experiment in all cases: Michaelis-Menten kinetics of pNA hydrolysis (Km)
Settings in all cases: Co2+
[1] = substrate: CC[C@H](C)[C@H](N)C(=O)Nc1ccc([N+](=O)[O-])cc1; assay type: biochemical, Acetivibrio thermocellus
[2] = substrate: CSCC[C@H](N)C(=O)Nc1ccc([N+](=O)[O-])cc1; assay type: biochemical, Acetivibrio thermocellus
[3] = substrate: CC(C)C[C@H](N)C(=O)Nc1ccc([N+](=O)[O-])cc1; assay type: biochemical, Acetivibrio thermocellus
[4] = substrate: CC[C@H](C)[C@H](N)C(=O)Nc1ccc([N+](=O)[O-])cc1; assay type: biochemical, Thermotoga maritima
[5] = substrate: CSCC[C@H](N)C(=O)Nc1ccc([N+](=O)[O-])cc1; assay type: biochemical, Thermotoga maritima
[6] = substrate: CC(C)C[C@H](N)C(=O)Nc1ccc([N+](=O)[O-])cc1; assay type: biochemical, Thermotoga maritima

B1: CelM (Acetivibrio thermocellus) (protein)
chain: MEEEDMFDLLKKFTGIVGVSGNEEEIREAIIEEIKECVDEIKVDTLGNLIAVKKGKGKKIMVAAHMDEIGVMVTYIDDKGFLRFSAVGGVSRYDCIGQRVKFKNGVVGAVYYEEKLEDMKNLQLSKMYIDIGARSREEALKMVNIGDVACFVGDAVLQGDTVISKALDNRSGCAVVVKAIKELKKTDNEIYFVFTVQEEVGLRGAKTAAFSIKPDIAIAVDVTMTGDTPESHPMEVKCGGGPAIKVKDRSVICHPEVRKLLEESAKRNNIPYQLEILEAGGSDPGSIHLTAGGIPSGAISIPVRYVHSPVETASMSDINNAVKLLVEAIC
notes: recombinant dodecameric CelM bearing a C-terminal hexahistidine tag
[1]
  Km: 2800 ± 200 µM
  kcat: 0.11 ± 0.01 s⁻¹
  kcat/Km: 39.3 M⁻¹ s⁻¹
[2]
  Km: 2900 ± 150 µM
  kcat: 0.072 ± 0.006 s⁻¹
  kcat/Km: 24.8 M⁻¹ s⁻¹
[3]
  Km: 3500 ± 400 µM
  kcat: 0.4 ± 0.03 s⁻¹
  kcat/Km: 114 M⁻¹ s⁻¹

B2: TmPep1050 (Thermotoga maritima MSB8) (protein)
chain: MKELIRKLTEAFGPSGREEEVRSIILEELEGHIDGHRIDGLGNLIVWKGSGEKKVILDAHIDEIGVVVTNVDDKGFLTIEPVGGVSPYMLLGKRIRFENGTIGVVGMEGETTEERQENVRKLSFDKLFIDIGANSREEAQKMCPIGSFGVYDSGFVEVSGKYVSKAMDDRIGCAVIVEVFKRIKPAVTLYGVFSVQEEVGLVGASVAGYGVPADEAIAIDVTDSADTPKAIKRHAMRLSGGPALKVKDRASISSKRILENLIEIAEKFDIKYQMEVLTFGGTNAMGYQRTREGIPSATVSIPTRYVHSPSEMIAPDDVEATVDLLIRYLGA
notes: recombinant TmPep1050 (TM1050 ORF)
[4]
  Km: 1900 ± 200 µM
  kcat: 0.059 ± 0.008 s⁻¹
  kcat/Km: 31.1 M⁻¹ s⁻¹
[5]
  Km: 650 ± 50 µM
  kcat: 0.009 ± 0.001 s⁻¹
  kcat/Km: 13.8 M⁻¹ s⁻¹
[6]
  Km: 4000 ± 300 µM
  kcat: 0.253 ± 0.019 s⁻¹
  kcat/Km: 63.2 M⁻¹ s⁻¹
